Laboratory results: paper PMC4500542 (Cell reports, 2015)
Like-named read-outs stand apart in the source and are kept apart here.

Legend:
[1] = target: EBOV NP° core domain (NP 34-367) (Ebola virus (EBOV, formerly Zaire ebolavirus)) (UniProt P18272); experiment: ITC
SEC-MALS [2] = target: the molecule itself; experiment: SEC-MALS
SEC-MALS [3] = target: the molecule itself; experiment: SEC-MALS; remark: listed apart in the source

Row | Molecule | binding result (SEC-MALS [2]) | also measured
1 | EBOV VP35 1-80 peptide (purified, wild type) (from UniProt Q05127 1-80) (domain or fragment) |  | Kd [1]: 1.1 nM
2 | MBP-EBOV NP 19-389 (domain or fragment) MDYHKILTAGLSVQQGIVRQRVIPVYQVNNLEEICQLIIQAFEAGVDFQESADSFLLMLCLHHAYQGDYKLFLESGAVKYLEGHGFRFEVKKRDGVKRLEELLPAVSSGKNIKRTLAAMPEEETTEANAGQFLSFASLFLPKLVVGEKACLEKVQRQIQVHAEQGLIQYPTAWQSVGHMMVIFRLMRTNFLIKFLLIHQGMHMVAGHDANDAVISNSVAQARFSGLLIVKTVLDHILQKTERGVRLHPLARTAKVKNEVNSFKAALSSLAKHGEYAPFARLLNLSGVNNLEHGLFPQLSAIALGVATAHGSTLAGVNVGEQYQQLREAATEAEKQLQQYAESRELDHLGLDDQEKKILMNFHQKKNEISFQ | binds | 
3 | MBP-EBOV NP 1-450 (oligomeric, RNA-bound) (domain or fragment) MDSRPQKIWMAPSLTESDMDYHKILTAGLSVQQGIVRQRVIPVYQVNNLEEICQLIIQAFEAGVDFQESADSFLLMLCLHHAYQGDYKLFLESGAVKYLEGHGFRFEVKKRDGVKRLEELLPAVSSGKNIKRTLAAMPEEETTEANAGQFLSFASLFLPKLVVGEKACLEKVQRQIQVHAEQGLIQYPTAWQSVGHMMVIFRLMRTNFLIKFLLIHQGMHMVAGHDANDAVISNSVAQARFSGLLIVKTVLDHILQKTERGVRLHPLARTAKVKNEVNSFKAALSSLAKHGEYAPFARLLNLSGVNNLEHGLFPQLSAIALGVATAHGSTLAGVNVGEQYQQLREAATEAEKQLQQYAESRELDHLGLDDQEKKILMNFHQKKNEISFQQTNAMVTLRKERLAKLTEAITAASLPKTSGHYDDDDDIPFPGPINDDDNPGHQDDDPTDSQ | binds | 
4 | EBOV NP 1-450 (oligomeric, RNA-bound, purified directly from E. coli) (domain or fragment) MDSRPQKIWMAPSLTESDMDYHKILTAGLSVQQGIVRQRVIPVYQVNNLEEICQLIIQAFEAGVDFQESADSFLLMLCLHHAYQGDYKLFLESGAVKYLEGHGFRFEVKKRDGVKRLEELLPAVSSGKNIKRTLAAMPEEETTEANAGQFLSFASLFLPKLVVGEKACLEKVQRQIQVHAEQGLIQYPTAWQSVGHMMVIFRLMRTNFLIKFLLIHQGMHMVAGHDANDAVISNSVAQARFSGLLIVKTVLDHILQKTERGVRLHPLARTAKVKNEVNSFKAALSSLAKHGEYAPFARLLNLSGVNNLEHGLFPQLSAIALGVATAHGSTLAGVNVGEQYQQLREAATEAEKQLQQYAESRELDHLGLDDQEKKILMNFHQKKNEISFQQTNAMVTLRKERLAKLTEAITAASLPKTSGHYDDDDDIPFPGPINDDDNPGHQDDDPTDSQ | binds | 
5 | MBP-EBOV NP 1-739 (oligomeric, RNA-bound) (natural protein) MDSRPQKIWMAPSLTESDMDYHKILTAGLSVQQGIVRQRVIPVYQVNNLEEICQLIIQAFEAGVDFQESADSFLLMLCLHHAYQGDYKLFLESGAVKYLEGHGFRFEVKKRDGVKRLEELLPAVSSGKNIKRTLAAMPEEETTEANAGQFLSFASLFLPKLVVGEKACLEKVQRQIQVHAEQGLIQYPTAWQSVGHMMVIFRLMRTNFLIKFLLIHQGMHMVAGHDANDAVISNSVAQARFSGLLIVKTVLDHILQKTERGVRLHPLARTAKVKNEVNSFKAALSSLAKHGEYAPFARLLNLSGVNNLEHGLFPQLSAIALGVATAHGSTLAGVNVGEQYQQLREAATEAEKQLQQYAESRELDHLGLDDQEKKILMNFHQKKNEISFQQTNAMVTLRKERLAKLTEAITAASLPKTSGHYDDDDDIPFPGPINDDDNPGHQDDDPTDSQDTTIPDVVVDPDDGSYGEYQSYSENGMNAPDDLVLFDLDEDDEDTKPVPNRSTKGGQQKNSQKGQHIEGRQTQSRPIQNVPGPHRTIHHASAPLTDNDRRNEPSGSTSPRMLTPINEEADPLDDADDETSSLPPLESDDEEQDRDGTSNRTPTVAPPAPVYRDHSEKKELPQDEQQDQDHTQEARNQDSDNTQSEHSFEEMYRHILRSQGPFDAVLYYHMMKDEPVVFSTSDGKEYTYPDSLEEEYPPWLTEKEAMNEENRFVTLDGQQFYWPVMNHKNKFMAILQHHQ |  | binding result (SEC-MALS [3]): binds
6 | EBOV NP 1-450 (co-expressed with His-VP35 1-80) (domain or fragment) MDSRPQKIWMAPSLTESDMDYHKILTAGLSVQQGIVRQRVIPVYQVNNLEEICQLIIQAFEAGVDFQESADSFLLMLCLHHAYQGDYKLFLESGAVKYLEGHGFRFEVKKRDGVKRLEELLPAVSSGKNIKRTLAAMPEEETTEANAGQFLSFASLFLPKLVVGEKACLEKVQRQIQVHAEQGLIQYPTAWQSVGHMMVIFRLMRTNFLIKFLLIHQGMHMVAGHDANDAVISNSVAQARFSGLLIVKTVLDHILQKTERGVRLHPLARTAKVKNEVNSFKAALSSLAKHGEYAPFARLLNLSGVNNLEHGLFPQLSAIALGVATAHGSTLAGVNVGEQYQQLREAATEAEKQLQQYAESRELDHLGLDDQEKKILMNFHQKKNEISFQQTNAMVTLRKERLAKLTEAITAASLPKTSGHYDDDDDIPFPGPINDDDNPGHQDDDPTDSQ | binds | 
7 | EBOV NP 1-450 released by TEV protease from the cleavable fusion (RNA-free) (domain or fragment) MDSRPQKIWMAPSLTESDMDYHKILTAGLSVQQGIVRQRVIPVYQVNNLEEICQLIIQAFEAGVDFQESADSFLLMLCLHHAYQGDYKLFLESGAVKYLEGHGFRFEVKKRDGVKRLEELLPAVSSGKNIKRTLAAMPEEETTEANAGQFLSFASLFLPKLVVGEKACLEKVQRQIQVHAEQGLIQYPTAWQSVGHMMVIFRLMRTNFLIKFLLIHQGMHMVAGHDANDAVISNSVAQARFSGLLIVKTVLDHILQKTERGVRLHPLARTAKVKNEVNSFKAALSSLAKHGEYAPFARLLNLSGVNNLEHGLFPQLSAIALGVATAHGSTLAGVNVGEQYQQLREAATEAEKQLQQYAESRELDHLGLDDQEKKILMNFHQKKNEISFQQTNAMVTLRKERLAKLTEAITAASLPKTSGHYDDDDDIPFPGPINDDDNPGHQDDDPTDSQ | binds | 
